Molecular target: T1, GFP with a C-terminal BC2 tag (BC2 tag (beta-catenin 16-27) on GFP, chimera)
T1 construct: GFP ('modified GFP that contains BC2T as a C-terminal peptide tag'; its control is called wtGFP); variant and limits are in the Supplementary methods; BC2 tag (BC2T), residues 16-27 of beta-catenin, at the C-terminus; also called GFP_(BC2T); source: E. coli, soluble protein fraction of the lysate (pull-downs); protein expression and purification are told in the Supplementary methods
T1 chain: PDRKAAVSHWQQ
Assay: SPR; measurements 'using the GFP_(BC2T) construct'; who was immobilised and the conditions are not told in the text shown (Supplementary methods, Supplementary Fig. 3)
Conditions: both partners purified

B1: BC2 nanobody (VHH)
VHH: QVQLVESGGGLVQPGGSLTLSCTASGFTLDHYDIGWFRQAPGKEREGVSCINNSDDDTYYADSVKGRFTIFMNNAKDTVYLQMNSLKPEDTAIYYCAEARGCKRGRYEYDFWGQGTQVTVSS
notes: In the pull-downs it is covalently coupled to Sepharose beads (BC2 nanotrap); also called BC2-Nb; wt; source: purified; expression and purification are told in the Supplementary methods
  Kd: 1.4 ± 0.06 nM
  koff: 0.00064 s⁻¹
  kon: 460000 M⁻¹ s⁻¹
